This note sets out measurements from publication PMC4670726, “Systematic discovery of linear binding motifs targeting an ancient protein interaction surface on MAP kinases” (Molecular Systems Biology, 2015).

The target of experiment [1] is T1, p38α (as used in the fluorescence polarization titrations) (human, UniProt Q16539 1-360).
T1 construct: p38α; the FP methods say only 'MAPKs'
Description: fluorescence polarisation; competition: 50 nM N-terminally labeled reporter peptide mixed with MAPK at ~60–80% complex formation, increasing amounts of unlabeled synthetic test peptide added; 384-well plates, triplicates; Ki from a competition binding equation. To be noted: both partners purified.

For experiment [2], the target named is T2, ERK2 (as used in the fluorescence polarization titrations) (human, UniProt P28482 1-360).
T2 construct: ERK2; the FP methods say only 'MAPKs'
Described as above. As to conditions: both partners purified.

Ends that are not written are not given here.

T1 sequence (Q16539 whole entry): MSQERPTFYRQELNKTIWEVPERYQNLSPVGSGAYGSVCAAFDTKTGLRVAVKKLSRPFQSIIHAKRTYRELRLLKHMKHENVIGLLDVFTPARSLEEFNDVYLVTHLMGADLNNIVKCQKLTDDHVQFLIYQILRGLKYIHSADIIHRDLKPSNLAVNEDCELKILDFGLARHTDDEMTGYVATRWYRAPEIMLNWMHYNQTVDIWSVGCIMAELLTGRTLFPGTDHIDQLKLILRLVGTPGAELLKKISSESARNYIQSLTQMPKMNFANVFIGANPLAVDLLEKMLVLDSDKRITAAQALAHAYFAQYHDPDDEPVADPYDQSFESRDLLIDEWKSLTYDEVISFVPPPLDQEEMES
T2 sequence (P28482 whole entry): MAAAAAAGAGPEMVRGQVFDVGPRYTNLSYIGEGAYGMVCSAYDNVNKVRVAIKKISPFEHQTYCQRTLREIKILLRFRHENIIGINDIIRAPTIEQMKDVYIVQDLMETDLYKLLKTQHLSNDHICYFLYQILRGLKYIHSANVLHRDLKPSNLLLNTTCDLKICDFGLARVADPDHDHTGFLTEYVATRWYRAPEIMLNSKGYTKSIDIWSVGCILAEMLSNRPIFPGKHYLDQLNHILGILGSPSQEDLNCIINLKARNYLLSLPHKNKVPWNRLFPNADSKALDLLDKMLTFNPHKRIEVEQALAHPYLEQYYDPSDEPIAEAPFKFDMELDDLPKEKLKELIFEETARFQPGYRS

B1: pepMEF2A, labeled reporter peptide (peptide)
peptide: SRKPDLRVVIPPS
modifications: also: N-terminally labeled with carboxyfluorescein or carboxytetramethylrhodamine
notes: docking peptide of MEF2A; source: synthetic peptide
With B1, the binding result in experiment [1] was “binds”.

B2: pepRSK1, labeled reporter peptide (peptide)
peptide: PQLKPIESSILAQRRVRKLPSTTL
modifications: also: N-terminal label: carboxyfluorescein or carboxytetramethylrhodamine
notes: docking peptide of RSK1; source: synthetic peptide
For B2, the binding result in experiment [2] was “binds”.

B3: pepMK2, labeled reporter peptide (peptide)
peptide: IKIKKIEDASNPLLLKRRKK
modifications: also: N-terminally labeled with carboxyfluorescein or carboxytetramethylrhodamine
notes: docking peptide of MK2; source: synthetic peptide
For the molecule B3, in experiment [1], the binding result is given as “binds”.
